Laboratory results: patent US7078233

Target: T1, 6-methylsalicylic acid synthase (6-MSAS) from Penicillium patulum, P22367
T1 chain: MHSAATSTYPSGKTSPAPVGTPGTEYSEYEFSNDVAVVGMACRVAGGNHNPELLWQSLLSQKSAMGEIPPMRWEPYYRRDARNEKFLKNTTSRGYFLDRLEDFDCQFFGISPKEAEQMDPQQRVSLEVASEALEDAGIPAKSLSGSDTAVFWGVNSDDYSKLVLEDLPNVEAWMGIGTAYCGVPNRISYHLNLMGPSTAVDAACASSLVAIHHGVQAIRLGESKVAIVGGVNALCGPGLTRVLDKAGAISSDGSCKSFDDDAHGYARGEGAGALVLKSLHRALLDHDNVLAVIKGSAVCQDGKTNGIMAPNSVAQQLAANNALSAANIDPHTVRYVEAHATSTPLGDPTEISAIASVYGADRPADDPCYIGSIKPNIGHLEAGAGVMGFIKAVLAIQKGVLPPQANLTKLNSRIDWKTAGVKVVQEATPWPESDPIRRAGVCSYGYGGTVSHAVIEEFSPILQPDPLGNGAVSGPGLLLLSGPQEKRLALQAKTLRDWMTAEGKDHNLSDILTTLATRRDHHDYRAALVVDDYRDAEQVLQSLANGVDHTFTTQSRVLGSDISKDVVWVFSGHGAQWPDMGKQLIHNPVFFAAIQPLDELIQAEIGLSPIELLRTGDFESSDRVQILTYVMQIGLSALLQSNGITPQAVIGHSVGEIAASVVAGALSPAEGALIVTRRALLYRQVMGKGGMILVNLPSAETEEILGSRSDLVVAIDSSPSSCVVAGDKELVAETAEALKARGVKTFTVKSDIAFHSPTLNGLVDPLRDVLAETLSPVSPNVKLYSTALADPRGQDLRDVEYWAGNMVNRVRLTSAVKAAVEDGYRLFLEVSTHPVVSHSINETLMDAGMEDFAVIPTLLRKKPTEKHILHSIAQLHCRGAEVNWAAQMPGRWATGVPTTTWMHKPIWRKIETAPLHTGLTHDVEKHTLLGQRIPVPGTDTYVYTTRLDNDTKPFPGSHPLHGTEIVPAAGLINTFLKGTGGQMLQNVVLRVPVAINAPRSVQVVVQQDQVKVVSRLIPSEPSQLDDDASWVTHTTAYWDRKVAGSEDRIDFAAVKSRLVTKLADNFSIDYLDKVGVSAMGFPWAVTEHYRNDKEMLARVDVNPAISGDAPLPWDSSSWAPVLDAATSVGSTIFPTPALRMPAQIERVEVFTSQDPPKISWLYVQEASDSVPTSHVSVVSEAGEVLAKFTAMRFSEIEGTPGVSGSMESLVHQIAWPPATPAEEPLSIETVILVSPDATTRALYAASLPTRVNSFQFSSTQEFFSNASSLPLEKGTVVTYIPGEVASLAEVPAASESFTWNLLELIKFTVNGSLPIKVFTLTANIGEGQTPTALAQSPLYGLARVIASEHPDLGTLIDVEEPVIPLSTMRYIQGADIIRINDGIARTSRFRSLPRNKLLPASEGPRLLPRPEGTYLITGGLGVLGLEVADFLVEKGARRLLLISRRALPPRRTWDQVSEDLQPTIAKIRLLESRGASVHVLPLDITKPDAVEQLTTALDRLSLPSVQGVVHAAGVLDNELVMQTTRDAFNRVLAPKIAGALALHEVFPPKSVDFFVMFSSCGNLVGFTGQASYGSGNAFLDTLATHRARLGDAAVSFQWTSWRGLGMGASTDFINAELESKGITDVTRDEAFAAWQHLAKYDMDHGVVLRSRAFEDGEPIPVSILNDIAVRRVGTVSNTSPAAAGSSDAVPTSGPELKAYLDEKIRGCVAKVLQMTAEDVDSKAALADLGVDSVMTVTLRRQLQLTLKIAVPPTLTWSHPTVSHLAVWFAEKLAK

B1: Bacillus subtilis surfactin holo ACP synthase (sfp) (protein)
chain: MKIYGIYMDRPLSQEENERFMSFISPEKREKCRRFYHKEDAHRTLLGDVLVRSVISRQYQLDKSDIRFSTQEYGKPCIPDLPDAHFNISHSGRWVICAFDSQPIGIDIEKTKPISLEIAKRFFSKTEYSDLLAKDKDEQTDYFYHLWSMKESFIKQEGKGLSLPLDSFSVRLHQDGQVSIELPDSHSPCYIKTYEVDPGYKMAVCAAHPDFPEDITMVSYEELL
With B1 the “radioactivity from labeled beta-alanine in the 190 kD 6-MSAS band on SDS-PAGE, E. coli SJ16 cotransformed with plasmids 108 (sfp) and 109 (6-MSAS)” value was “a detectable amount of radioactivity was found in the 190 kD 6-MSAS band”.
